Assay [1] has as its target T1, human plasma kallikrein (active form) (human, UniProt P03952 20-390; P03952 391-638).
T1 construct: also called pKal; human pKal
Kind of assay: apparent Ki (Ki,app), inhibition of human pKal enzyme activity. Here is the method: (§1) Apparent Inhibition constants (K_{i,app} values) were measured by pre-incubating enzyme and inhibitor solutions prior to initiating the reactions with substrate. Enzyme and inhibitor were pre-incubated for 2 hours at 30° C. in a 96-well plate by adding 10 μL of a 10× enzyme solution and 10 μL of 10× inhibitor solutions to 70 μL of reaction buffer. Reactions were initiated by the addition of 10 μL of a 10× concentrated stock of substrate, and were monitored at 30° C. in a fluorescence plate reader with the excitation and emission wavelengths set at 360 nm/460 nm, respectively. Kinetic data were acquired by the increase in fluorescence, and initial rates for each condition were plotted against the total inhibitor concentration. The data was fit to the following equation for tight binding inhibitors: […]

For assay [2], the target named is T2, mouse plasma kallikrein (mouse, UniProt P26262 20-638, limits assumed).
T2 construct: also called mouse pKal
The experiment in a line: apparent Ki (Ki,app), inhibition of mouse pKal enzyme activity. Here is the method:
as §1
T2 sequence (P26262 20-638 limits assumed): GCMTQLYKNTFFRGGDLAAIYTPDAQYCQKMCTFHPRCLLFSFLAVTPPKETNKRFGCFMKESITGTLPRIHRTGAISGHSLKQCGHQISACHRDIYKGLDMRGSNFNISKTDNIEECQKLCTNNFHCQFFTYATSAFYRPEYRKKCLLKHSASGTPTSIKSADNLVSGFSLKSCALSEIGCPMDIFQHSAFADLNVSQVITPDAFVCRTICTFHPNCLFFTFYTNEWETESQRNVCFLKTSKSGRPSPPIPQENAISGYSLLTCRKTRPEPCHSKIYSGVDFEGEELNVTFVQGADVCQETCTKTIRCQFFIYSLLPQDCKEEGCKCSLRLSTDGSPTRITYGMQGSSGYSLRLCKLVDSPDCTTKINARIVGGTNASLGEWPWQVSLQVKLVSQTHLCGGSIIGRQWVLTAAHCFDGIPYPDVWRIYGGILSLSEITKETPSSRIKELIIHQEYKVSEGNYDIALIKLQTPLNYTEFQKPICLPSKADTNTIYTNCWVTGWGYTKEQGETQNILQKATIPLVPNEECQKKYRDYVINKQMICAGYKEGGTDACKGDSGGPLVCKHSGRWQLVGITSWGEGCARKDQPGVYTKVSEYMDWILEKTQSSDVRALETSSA

In assay [3] the target is T3, pKal catalytic domain Mutant 1 (human, UniProt P03952 391-638, limits assumed).
T3 construct: domain: catalytic domain; Expressed in Pichia pastoris, purified by IMAC; not shown: His tag fusion
T3 sequence (P03952 other isoform, or with tags, fused parts or gaps mutant limits assumed): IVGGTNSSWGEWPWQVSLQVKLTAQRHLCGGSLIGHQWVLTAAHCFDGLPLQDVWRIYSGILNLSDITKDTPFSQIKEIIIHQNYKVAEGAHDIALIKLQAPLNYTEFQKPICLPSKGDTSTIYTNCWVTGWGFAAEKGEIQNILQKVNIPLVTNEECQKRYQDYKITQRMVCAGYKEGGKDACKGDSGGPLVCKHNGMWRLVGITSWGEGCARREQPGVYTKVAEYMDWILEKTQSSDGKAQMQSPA
Kind of assay: apparent Ki (Ki,app), enzyme inhibition, pKal catalytic domain Mutant 1. Here is the method:
as §1

Assay [4] addresses T4, pKal catalytic domain Mutant 2 (human, UniProt P03952 391-638, limits assumed).
T4 construct: domain: catalytic domain; Expressed in Pichia pastoris, purified by IMAC; not shown: His tag fusion
Kind of assay: apparent Ki (Ki,app), enzyme inhibition, pKal catalytic domain Mutant 2. The method, then:
as §1

For assay [5], the target named is T5, wild type pKal catalytic domain (human, UniProt P03952 391-638, limits assumed).
T5 construct: domain: catalytic domain; also called WT cat; Domain; not shown: His tag fusion
T5 sequence (P03952 391-638 limits assumed): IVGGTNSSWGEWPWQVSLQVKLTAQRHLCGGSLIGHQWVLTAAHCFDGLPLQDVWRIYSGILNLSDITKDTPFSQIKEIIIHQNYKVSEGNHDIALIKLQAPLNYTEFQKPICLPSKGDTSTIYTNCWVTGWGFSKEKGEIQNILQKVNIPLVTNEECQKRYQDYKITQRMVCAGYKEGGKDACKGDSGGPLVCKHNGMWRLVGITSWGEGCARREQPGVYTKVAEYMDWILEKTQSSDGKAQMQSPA
The experiment in a line: apparent Ki (Ki,app), enzyme inhibition, wild type pKal catalytic domain. The method, then: as §1

Assay [6] has as its target T6, mouse plasma kallikrein (mouse, UniProt P26262 20-638, limits assumed).
T6 construct: also called mouse pKal; rodent pKal
The experiment in a line: apparent inhibition constant (Ki,app) from enzyme inhibition of rodent pKal.
T6 sequence (P26262 20-638 limits assumed): as the sequence (P26262 20-638 limits assumed) above

Assay [7] deals with T7, human plasma kallikrein (human, UniProt P03952 20-390; P03952 391-638).
T7 construct: two disulfide-linked chains; also called pKal; human pKal
Kind of assay: apparent inhibition constant (Ki,app) from enzyme inhibition of human pKal; Fab.
T7 sequence (P03952 20-390, chain 1 of 2): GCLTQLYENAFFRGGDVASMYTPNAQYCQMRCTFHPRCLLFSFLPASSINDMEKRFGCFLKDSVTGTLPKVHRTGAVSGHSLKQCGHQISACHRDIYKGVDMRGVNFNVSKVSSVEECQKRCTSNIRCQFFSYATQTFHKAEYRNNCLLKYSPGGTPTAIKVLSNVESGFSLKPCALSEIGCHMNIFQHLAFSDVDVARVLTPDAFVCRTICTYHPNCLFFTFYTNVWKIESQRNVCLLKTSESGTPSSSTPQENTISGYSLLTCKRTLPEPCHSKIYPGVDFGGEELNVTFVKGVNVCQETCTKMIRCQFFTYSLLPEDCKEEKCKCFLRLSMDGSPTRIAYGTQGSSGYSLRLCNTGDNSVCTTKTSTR
T7 sequence (P03952 391-638, chain 2 of 2): as the sequence (P03952 391-638 limits assumed) above

The target of assay [8] is T1, human plasma kallikrein (active form). Kind of assay: apparent Ki (Ki,app), inhibition of human pKal enzyme activity. This is another data set of the same source.
The target of assay [9] is T2, mouse plasma kallikrein. The experiment in a line: apparent Ki (Ki,app), inhibition of rodent pKal enzyme activity.
Assay [10] concerns the target T8, human plasma kallikrein (human, UniProt P03952 20-390; P03952 391-638).
T8 construct: two disulfide linked chains; also called pKal; human pKal
Kind of assay: Ki,app of IgG, enzyme inhibition of human pKal.
T8 sequence (P03952 20-390, chain 1 of 2): as the sequence (P03952 20-390, chain 1 of 2) above
T8 sequence (P03952 391-638, chain 2 of 2): as the sequence (P03952 391-638 limits assumed) above

Assay [11] has as its target T8, human plasma kallikrein. The experiment in a line: Ki,app as an IgG, steady state enzyme kinetics, inhibition of human pKal.
Assay [12] deals with T7, human plasma kallikrein. The experiment in a line: apparent inhibition constant (Ki,app) from enzyme inhibition of human pKal; IgG.
The target of assay [13] is T8, human plasma kallikrein. The experiment in a line: Ki,app, enzyme inhibition of pKal; antibody format not stated.

Read-outs that look alike come from different tables or passages of the source. A value given as a limit tells only on which side of the number the result lay.

T1 sequence (P03952 20-390, chain 1 of 2): as the sequence (P03952 20-390, chain 1 of 2) above
T1 sequence (P03952 391-638, chain 2 of 2): as the sequence (P03952 391-638 limits assumed) above
T4 sequence (P03952 other isoform, or with tags, fused parts or gaps mutant limits assumed): as the sequence (P03952 391-638 limits assumed) above, with R161A, Q163A, Y165A, T168A, R170A counted along it

B1: M35-G04 (antibody, V domains shown)
VH: EVQLLESGGGLVQPGGSLRLSCAASGFTFSYYHMSWVRQAPGKGLEWVSVISPSGGSTKYADSVKGRFTISRDNSKNTLYLQMNSLRAEDTAVYYCARGGSSDYAWGSYRRPYYFDYWGQGTLVTVSS
VL: DIQMTQSPATLSLSPGERATLSCRASQSVSSYLAWYQQKPGQAPRLLIYDASNRATGIPARFSGSGSGTDFTLTISSLEPEDFAVYYCQQRSNWPRGFTFGPGTKVDIK
notes: also called 559A-M35-G04; 559A-M0035-G04
Regarding B1, the Ki in [1] came out at 2.9 nM; in [2] it was 8 nM; in assay [3], 0.09 nM; in assay [4] it was 1.1 nM; in assay [5], 0.8 nM.

B2: M145-D11 (Fab, V domains shown)
VH: EVQLLESGGGLVQPGGSLRLSCAASGFTFSHYRMSWVRQAPGKGLEWVSSIYPSGGRTVYADSVKGRFTISRDNSKNTLYLQMNSLRAEDTAVYYCAKDKFEWRLLFRGIGNDAFDIWGQGTMVTVSS
VL: QSVLTQPPSVSVSPGQTASITCSGDKLGDKYTSWYQQRPGQSPVLVIYQDIKRPSGIPERFSGSNSGNTATLTISGTQAMDEADYYCQAWDSPNARVFGSGTKVTVL
notes: also called 559A-M145-D11 (sFab); 559A-M0145-D11
As to B2, the Ki worked out at 0.79 nM in [1]; 800 nM in assay [2]; 0.23 nM in assay [3]; 0.1 nM in assay [4]; 0.16 nM in [5].

B3: M29-D09 (Fab, V domains shown)
VH: EVQLLESGGGLVQPGGSLRLSCAASGFTFSWYTMVWVRQAPGKGLEWVSYIYPSGGATFYADSVKGRFTISRDNSKNTLYLQMNSLRAEDTAVYYCAMGSYDYIWGFYSDHWGQGTLVTVSS
VL: QSALTQPPTVSVSPGQTARITCSGNKLGDKYVAWYQQKPGQSPMLVIYQDTKRPSRVSERFSGSNSANTATLSISGTQALDEADYYCQAWDSSIVIFGGGTRLTVL
notes: also called 559A-M29-D09 (sFab); 559A-M0029-D09
In the case of B3, the Ki in assay [1] is 0.7 nM; in [3] it was 0.27 nM; in assay [4] it was 0.34 nM; in assay [5], 0.24 nM.

B4: M6-D09 (antibody, V domains shown)
VH: EVQLLESGGGLVQPGGSLRLSCAASGFTFSFYYMVWVRQAPGKGLEWVSVIYPSGGITVYADSVKGRFTISRDNSKNTLYLQMNSLRAEDTAVYYCARDKWAVMPPYYYYAMDVWGQGTTVTVSS
VL: DIQMTQSPSSLSASVGDRVTITCRASQSIRNYLNWYQQKPGKAPNLLIYAASTLQSGVPARFSGSGSGTDFTLTISSLQPEDFATYYCQQLSGYPHTFGQGTKLEIK
notes: also called M06-D09; 559A-M06-D09
As for B4, the Ki in assay [1] turned out to be 5.9 nM; in [2], 3.9 nM; in assay [3] it was 3.4 nM; in assay [4], 13.5 nM; in [5], 2.5 nM.

B5: M142-H08 (Fab) (Fab, V domains shown)
VH: EVQLLESGGGLVQPGGSLRLSCAASGFTFSAYSMIWVRQAPGKGLEWVSYIRPSGGRTTYADSVKGRFTISRDNSKNTLYLQMNSLRAEDTAVYYCARGGLLLWFRELKSNYFDYWGQGTLVTVSS
VL: DIQMTQSPSSLSAFVGDRVTITCRASQPIDNYLNWYHQKPGKAPKLLIYAASRLQSGVPSRLSGSGFGTDFTLTISSLQPEDFGNYYCQQSYTVPYTFGGGTKVEIR
notes: Fab; printed HC runs into the start of CH1
On to B5, for which the Ki in assay [6] is approximately 1 nM; in [7], 0.6 nM.

B6: X67-D03 (antibody, V domains shown)
VH: EVQLLESGGGLVQPGGSLRLSCAASGFTFSAYSMIWVRQAPGKGLEWVSYIRPSGGRTTYADSVKGRFTISRDNSKNTLYLQMNSLRAEDTAVYYCARGGLLLWNRELKSNYFDYWGQGTLVTVSS
VL: DIQMTQSPSSLSAFVGDRVTITCRASQPIDNYLNWYHQKPGKAPKLLIYAASRLQSGVPSRLSGSGFGTDFTLTISSLQPEDFGNYYCQQSYTVPYTFGGGTKVEIR
notes: Tested as IgG; Single point mutant (F to N in HC CDR3) of M142-H08; also called X67-D03 (IgG); 559A-X67-D03
As to B6, the Ki came out at 0.1 nM in assay [8] and 0.7 nM in assay [9].

B7: X67-G04 (IgG) (antibody, V domains shown)
VH: EVQLLESGGGLVQPGGSLRLSCAASGFTFSAYSMIWVRQAPGKGLEWVSYIRPSGGRTTYADSVKGRFTISRDNSKNTLYLQMNSLRAEDTAVYYCARGGLLLWARELKSNYFDYWGQGTLVTVSS
VL: DIQMTQSPSSLSAFVGDRVTITCRASQPIDNYLNWYHQKPGKAPKLLIYAASRLQSGVPSRLSGSGFGTDFTLTISSLQPEDFGNYYCQQSYTVPYTFGGGTKVEIR
notes: printed HC runs into CH1
Consider B7, for which the Ki in assay [10] and in assay [11] was 0.35 nM in each case.

B8: X67-D03 (IgG) (antibody, V domains shown)
VH: EVQLLESGGGLVQPGGSLRLSCAASGFTFSAYSMIWVRQAPGKGLEWVSYIRPSGGRTTYADSVKGRFTISRDNSKNTLYLQMNSLRAEDTAVYYCARGGLLLWNRELKSNYFDYWGQGTLVTVSS
VL: DIQMTQSPSSLSAFVGDRVTITCRASQPIDNYLNWYHQKPGKAPKLLIYAASRLQSGVPSRLSGSGFGTDFTLTISSLQPEDFGNYYCQQSYTVPYTFGGGTKVEIR
notes: printed HC runs into CH1; also called 559A-X67-D03
As to B8, the Ki in assay [10] and in assay [11] was 0.1 nM in each case.

B9: M160-G12 (IgG) (antibody, V domains shown)
VH: EVQLLESGGGLVQPGGSLRLSCAASGFTFSHYLMTWVRQAPGKGLEWVSYISPSGGHTIYADSVKGRFTISRDNSKNTLYLQMNSLRAEDTAVYYCARVARGIAARSRTSYFDYWGQGTLVTVSS
VL: DIQMTQSPSFLSASVGDRVTITCRASQGISSYLAWYQQKPGKAPKLLIYAASTLQSGVPSRFSGSGSGTEFTLTISSLQPEDFATYYCQQLNSYPLTFGGGTKVEIK
notes: Human IgG; also called R84-D02
Regarding B9, the Ki in assay [6] is less than 1 nM; in assay [12] it was 5.6 nM.

B10: X63-G10 (antibody, V domains shown)
VH: EVQLLESGGGLVQPGGSLRLSCAASGFTFSHYLMTWVRQAPGKGLEWVSYISPSGGHTIYADSVKGRFTISRDNSKNTLYLQMNSLRAEDTAVYYCARVARGIAARSRTSYFDYWGQGTLVTVSS
VL: DIQMTQSPDSLSASVGDRVTITCRASQSISNYLNWYQQKPGKAPKLLIYAASSLQSGVPSRFSGSGSGTDFTLTISGLQPEDFASYYCQQSYTSPYTFVQGTKLEIKR
notes: Found by ROLIC light chain shuffling
In assay [13], B10 showed a Ki of 9 nM.

B11: X59-C07 (antibody, V domains shown)
VH: EVQLLESGGGLVQPGGSLRLSCAASGFTFSHYLMTWVRQAPGKGLEWVSYISPSGGHTIYADSVKGRFTISRDNSKNTLYLQMNSLRAEDTAVYYCARVARGIAARSRTSYFDYWGQGTLVTVSS
VL: DIQMTQSPSSLSASVGDRVTVTCRAGRSISTYVNWYQQKPGKAPKLLIYAASSLQSGVPSRFSGSRSGTDFTLTISSLQPEDFATYYCQQSQSTPYTFGQGTKLEVK
notes: as for B10
In the case of B11, the Ki in assay [13] turned out to be 6.1 nM.

B12: M160-G12 (antibody, V domains shown)
VH: EVQLLESGGGLVQPGGSLRLSCAASGFTFSHYLMTWVRQAPGKGLEWVSYISPSGGHTIYADSVKGRFTISRDNSKNTLYLQMNSLRAEDTAVYYCARVARGIAARSRTSYFDYWGQGTLVTVSS
VL: DIQMTQSPSFLSASVGDRVTITCRASQGISSYLAWYQQKPGKAPKLLIYAASTLQSGVPSRFSGSGSGTEFTLTISSLQPEDFATYYCQQLNSYPLTFGGGTKVEIK
notes: also called R84-D02
With B12, the Ki in assay [1] amounted to 5 nM; in assay [2] it was 0.2 nM.

B13: X64-F04 (antibody, V domains shown)
VH: EVQLLESGGGLVQPGGSLRLSCAASGFTFSHYLMTWVRQAPGKGLEWVSYISPSGGHTIYADSVKGRFTISRDNSKNTLYLQMNSLRAEDTAVYYCARVARGIAARSRTSYFDYWGQGTLVTVSS
VL: DIQMTQSPATLSLSPGERATLSCRASQIVSSNYLAWYQQKPGQAPRLLIYGASNRATGIPDRFSGSGSGTEFTLTISSLQSEDFAIYYCQQSFNIPYTFGQGTRVDIK
notes: as for B10
B13 came in with a Ki in assay [13] of 1.9 nM.

B14: X60-D01 (antibody, V domains shown)
VH: EVQLLESGGGLVQPGGSLRLSCAASGFTFSHYLMTWVRQAPGKGLEWVSYISPSGGHTIYADSVKGRFTISRDNSKNTLYLQMNSLRAEDTAVYYCARVARGIAARSRTSYFDYWGQGTLVTVSS
VL: DIQMTQSPGTLSLSPGERATLSCRASQIVSSRYLAWYQQRPGQAPRLLIYGAASRATGIPDRFSGSGSGTDFTLTISSLQAEDFATYYCQQTYSSPFTFGQGTKMEIK
notes: as for B10
B14: the Ki in [13] was 2 nM.
